The target in assay [1] is T1, recombinant human HGF (R&D Systems, Catalog No. 294-HGN-025) (human, UniProt P14210 32-728). The experiment in a line: cell-based or functional assay.
In assay [2] the target is T1, recombinant human HGF (R&D Systems, …). Nature of the assay: cell-based or functional assay. The source holds these as a separate data set.
Assay [3] has the same target. Nature of the assay: SPR, captured antibody, HGF injected, 25 C. The procedure: Mouse anti-human immunoglobulins (Jackson Labs, Catalog No. 209-005) were immobilized on carboxymethylated dextran CM4 sensor chips (BIAcore, Catalog No. BR-1006-68) by amine coupling (BIAcore, Catalog No. BR-1000-50) using a standard coupling protocol according to manufacturer's instructions. The analyses were performed at 25° C. using PBS (GIBCO, Catalog No. 14040-133) containing 0.05% surfactant P20 (BIAcore, Catalog No. BR-1000-54), and 2 mg/mL BSA (EMD, Catalog No. 2930).
The antibodies were captured in an individual flow cell at a flow rate of 10 μL/min. Injection time was variable for each antibody to yield approximately 20 RU of antibody captured for each cycle. […] The dissociation phase was monitored for 15 or 90 minutes, depending on concentration. The surface then was regenerated with 10 mM Glycine-HCl, pH 2.2 (BIAcore, Catalog No. BR-1003-54) injected for 3 minutes at a flow rate of 60 μL/min before another cycle was initiated.
Kinetic parameters were determined using the kinetic function of the BIAevalutation™ software with reference subtraction.
(Surface plasmon resonance follows binding to a sensor surface in real time, without labels.)

In assay [4] the target is T2, recombinant mouse HGF (R&D Systems) (mouse, UniProt Q08048 33-728).
T2 construct: Bought protein, construct not described; also called rmHGF (R&D Systems); murine HGF
The experiment in a line: SPR, antibody immobilized, HGF protein injected, 25 C. The procedure: (§1) Analyses were performed at 25° C. using PBS (GIBCO, Catalog No. 14040-133) containing 0.05% surfactant P20 (BIAcore, Catalog No. R-1000-54), 2 mg/mL BSA (EMD, Catalog No. 2930) and 10 mg/mL CM-Dextran Sodium salt (Fluka, Catalog No. 86524) as running buffer. […] The resulting binding was determined as resonance units (RU) over baseline 30 seconds after the end of injection. […] Non-specific binding was monitored by comparing binding to a control surface.

Assay [5] deals with T3, recombinant mhm chimeric HGF protein containing human W507-L585 HGF sequence disposed within mouse HGF … (mouse-human-mouse chimera, UniProt Q08048 56-728).
T3 construct: CHO supernatant; also called mhm chimera (W507-L585); MHM chimera (507-585)
T3 chain: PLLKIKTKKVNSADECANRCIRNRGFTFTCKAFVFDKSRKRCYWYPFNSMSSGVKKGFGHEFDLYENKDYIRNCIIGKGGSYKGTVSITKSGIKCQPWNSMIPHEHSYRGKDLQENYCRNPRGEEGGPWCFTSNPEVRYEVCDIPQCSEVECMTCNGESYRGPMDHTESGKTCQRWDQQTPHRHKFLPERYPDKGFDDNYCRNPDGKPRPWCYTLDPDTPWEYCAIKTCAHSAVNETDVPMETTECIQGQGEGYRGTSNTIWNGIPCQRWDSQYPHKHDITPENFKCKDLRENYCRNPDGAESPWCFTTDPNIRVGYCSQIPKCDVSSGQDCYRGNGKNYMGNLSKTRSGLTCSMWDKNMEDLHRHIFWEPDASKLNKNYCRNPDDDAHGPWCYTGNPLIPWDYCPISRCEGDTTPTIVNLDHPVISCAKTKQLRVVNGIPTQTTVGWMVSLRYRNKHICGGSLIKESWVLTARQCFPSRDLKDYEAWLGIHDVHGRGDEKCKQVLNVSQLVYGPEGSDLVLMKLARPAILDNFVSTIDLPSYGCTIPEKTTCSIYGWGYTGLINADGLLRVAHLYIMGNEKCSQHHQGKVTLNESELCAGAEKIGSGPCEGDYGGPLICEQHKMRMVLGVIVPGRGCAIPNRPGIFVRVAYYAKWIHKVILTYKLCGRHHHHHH
Described as above. As for the experimental part:
as §1

Assay [6] deals with T4, recombinant mhm chimeric HGF protein containing the region I499-R556 of hHGF disposed between murine sequences (mouse-human-mouse chimera, UniProt Q08048 56-728).
T4 construct: also called mhm chimera (I499-R556)
T4 chain: T3 chain with Q443R, T445N, V446I, D499E, C502R, V505I, V508I, M523L
The assay is described as above. As for the experimental part: as §1

The target in assay [7] is T1, recombinant human HGF (R&D Systems, …). The experiment in a line: competition ELISA (DELFIA): antibody inhibits biotinylated c-Met binding to plate-coated HGF. As for the experimental part:
The plates then were blocked with 200 μL of 5% non-fat dry milk in PBS for 1 hour at room temperature. […] 100 μL of sample per well was transferred to the assay plate and incubated for 2 hours at room temperature. The resulting plates were washed three times with PBS-0.1% Tween 20, and incubated for 1 hour at room temperature with Eu-labeled Streptavidin (Wallac, Catalog No. 1244-360) diluted 1:1000 in DELFIA assay buffer (Wallac, Catalog No. 4002-0010). The resulting plates were washed 3 times with DELFIA wash solution (Wallac, Catalog No. 4010-0010) and incubated with 100 μL/well DELFIA enhancement solution (Wallac #4001-0010) for 15 minutes at room temperature with agitation. The plates were read on Victor³V instrument (Perkin Elmer) using the Europium method. The IC₅₀ values were calculated using Prism.

For assay [8] the target is unchanged. The experiment in a line: cell-based or functional assay. This is another data set of the same source.
Assay [9] has the same target. Nature of the assay: cell-based or functional assay. This is another data set of the same source.
The target of assay [10] is T2, recombinant mouse HGF (R&D Systems). The experiment in a line: SPR, antibody immobilized, HGF protein injected, 25 C. The procedure: (§2) Each antibody was immobilized on a carboxymethylated dextran CM5 sensor chip (BIAcore, Catalog No. BR-1006-68) by amine coupling (BIAcore, Catalog No. BR-1000-50) using a standard coupling protocol according to manufacturer's instructions.
(§3) Analyses were performed at 25° C. using PBS (GIBCO, Catalog No. 14040-133) containing 0.05% surfactant P20 (BIAcore, Catalog No. R-1000-54), 2 mg/mL BSA (EMD, Catalog No. 2930) and 10 mg/mL CM-Dextran Sodium salt (Fluka, Catalog No. 86524) as running buffer. […] The resulting binding was determined as resonance units (RU) over baseline 30 seconds after the end of injection. […] Non-specific binding was monitored by comparing binding to a control surface where mouse IgG (Rockland, Catalog No. 010-0102) was immobilized using the same amine coupling procedure.
This is another data set of the same source.

Assay [11] concerns the target hHGF-Fc G555E (recombinant hHGF protein containing a glycine to glutamate substitution at position 555) (human). Described as above. The procedure: as §2, §3
For assay [12], the target named is hHGF-Fc C561R (recombinant hHGF protein containing a cysteine to arginine substitution at position 561) (human). The description is as above. The procedure: as §2, §3
The target in assay [13] is T1, recombinant human HGF (R&D Systems, …). The experiment in a line: SPR, antibody captured by anti-mouse Ig, HGF injected, 25 C. As for the experimental part:
Rabbit anti-mouse immunoglobulins (BIAcore, Catalog No. BR-1005-14) were immobilized on carboxymethylated dextran CM5 sensor chips (BIAcore, Catalog No. BR-1006-68) by amine coupling (BIAcore, Catalog No. BR-1000-50) using a standard coupling protocol according to manufacturer's instructions. The analyses were performed at 25° C. using PBS (GIBCO, Catalog No. 14040-133) containing 0.05% surfactant P20 (BIAcore, Catalog No. BR-1000-54), 2 mg/mL BSA (EMD, Catalog No. 2930), and 10 mg/mL CM-Dextran Sodium salt (Fluka, Catalog No. 86524) as running buffer.
The antibodies were captured in an individual flow cell at a flow rate of 10 μL/min. Injection time was variable for each antibody to yield approximately 20 RU of antibody captured for each cycle. […] The dissociation phase was monitored for 15 or 90 minutes, depending on concentration. The surface then was regenerated with 10 mM Glycine-HCl, pH 1.7 (BIAcore, Catalog No. BR-1003-54) injected for 3 minutes at a flow rate of 60 μL/min before another cycle was initiated.
Kinetic parameters were determined using the kinetic function of the BIAevalutation software with reference subtraction.

Assay [14] has the same target. The experiment in a line: competition ELISA (DELFIA): antibody inhibits c-Met binding to plate-coated HGF. The procedure:
The plates then were blocked with 200 μL of 5% non-fat dry milk in PBS for 1 hour at room temperature. […] 100 μL of sample per well was transferred to the assay plate and incubated overnight at 4° C.
The resulting plates then were washed three times with PBS-0.1% Tween 20, and incubated for 1 hour at room temperature with Eu-labeled Streptavidin (Wallac, Catalog No. 1244-360) diluted 1:1000 in DELFIA assay buffer (Wallac, Catalog No. 4002-0010). The resulting plates were washed 3 times with DELFIA wash solution (Wallac, Catalog No. 4010-0010) and incubated with 100 μL/well DELFIA enhancement solution (Wallac #4001-0010) for 15 minutes at room temperature with agitation.
The plates were read on Victor³V instrument (Perkin Elmer) using the Europium method.
(An ELISA detects its analyte on a solid surface through an enzyme-linked reagent.)

What is called Kd is the free concentration of one partner at which half of the binding sites on the other are occupied at equilibrium, for simple one-to-one binding. Usually koff stands for the rate constant with which the complex falls apart. By kon is commonly meant the rate constant with which the complex forms. The term IC50 denotes the concentration that gives 50% inhibition.

Positions count from the first letter of the chain named. Read-outs that look alike come from different tables or passages of the source.

T1 sequence (P14210 32-728 limits assumed): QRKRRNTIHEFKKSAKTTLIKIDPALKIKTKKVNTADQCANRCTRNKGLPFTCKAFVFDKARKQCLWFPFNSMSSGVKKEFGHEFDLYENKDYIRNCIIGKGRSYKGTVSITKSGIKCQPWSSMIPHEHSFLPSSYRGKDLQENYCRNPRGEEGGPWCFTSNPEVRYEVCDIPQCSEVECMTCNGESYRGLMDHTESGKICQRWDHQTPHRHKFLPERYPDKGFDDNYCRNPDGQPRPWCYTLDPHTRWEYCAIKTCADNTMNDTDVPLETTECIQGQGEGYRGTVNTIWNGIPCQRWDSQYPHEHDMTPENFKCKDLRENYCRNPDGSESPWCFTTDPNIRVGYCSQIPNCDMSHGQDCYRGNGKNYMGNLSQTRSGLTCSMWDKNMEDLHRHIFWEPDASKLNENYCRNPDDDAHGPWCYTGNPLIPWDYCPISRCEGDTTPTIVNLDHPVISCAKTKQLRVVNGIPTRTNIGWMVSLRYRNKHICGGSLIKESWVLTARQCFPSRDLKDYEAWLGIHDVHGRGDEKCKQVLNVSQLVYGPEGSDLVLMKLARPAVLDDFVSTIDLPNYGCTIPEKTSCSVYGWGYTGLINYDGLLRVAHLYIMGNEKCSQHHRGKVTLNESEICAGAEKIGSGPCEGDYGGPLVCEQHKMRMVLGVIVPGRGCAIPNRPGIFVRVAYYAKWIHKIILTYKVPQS
T2 sequence (Q08048 33-728 limits assumed): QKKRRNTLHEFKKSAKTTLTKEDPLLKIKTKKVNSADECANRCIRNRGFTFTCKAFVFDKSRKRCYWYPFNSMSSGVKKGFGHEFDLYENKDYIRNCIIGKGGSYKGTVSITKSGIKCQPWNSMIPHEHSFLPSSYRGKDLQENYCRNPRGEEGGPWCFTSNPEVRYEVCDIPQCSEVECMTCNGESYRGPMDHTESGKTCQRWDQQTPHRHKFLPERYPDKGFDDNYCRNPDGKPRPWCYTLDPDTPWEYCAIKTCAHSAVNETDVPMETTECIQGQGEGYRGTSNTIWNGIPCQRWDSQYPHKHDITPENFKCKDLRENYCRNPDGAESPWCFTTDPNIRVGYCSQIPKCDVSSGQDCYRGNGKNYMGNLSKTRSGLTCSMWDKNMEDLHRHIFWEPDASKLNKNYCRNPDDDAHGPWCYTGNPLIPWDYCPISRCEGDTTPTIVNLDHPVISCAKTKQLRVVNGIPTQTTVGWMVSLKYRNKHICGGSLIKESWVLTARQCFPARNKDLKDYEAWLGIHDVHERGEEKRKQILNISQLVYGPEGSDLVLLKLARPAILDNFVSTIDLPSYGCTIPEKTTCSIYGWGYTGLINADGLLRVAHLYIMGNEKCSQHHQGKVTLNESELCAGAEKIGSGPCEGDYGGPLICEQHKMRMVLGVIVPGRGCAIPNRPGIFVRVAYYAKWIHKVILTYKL
Sequence of hHGF-Fc G555E (recombinant hHGF protein containing a glycine to glutamate substitution at position 555) (human) (chain, as listed by the source G555E G555E limits assumed): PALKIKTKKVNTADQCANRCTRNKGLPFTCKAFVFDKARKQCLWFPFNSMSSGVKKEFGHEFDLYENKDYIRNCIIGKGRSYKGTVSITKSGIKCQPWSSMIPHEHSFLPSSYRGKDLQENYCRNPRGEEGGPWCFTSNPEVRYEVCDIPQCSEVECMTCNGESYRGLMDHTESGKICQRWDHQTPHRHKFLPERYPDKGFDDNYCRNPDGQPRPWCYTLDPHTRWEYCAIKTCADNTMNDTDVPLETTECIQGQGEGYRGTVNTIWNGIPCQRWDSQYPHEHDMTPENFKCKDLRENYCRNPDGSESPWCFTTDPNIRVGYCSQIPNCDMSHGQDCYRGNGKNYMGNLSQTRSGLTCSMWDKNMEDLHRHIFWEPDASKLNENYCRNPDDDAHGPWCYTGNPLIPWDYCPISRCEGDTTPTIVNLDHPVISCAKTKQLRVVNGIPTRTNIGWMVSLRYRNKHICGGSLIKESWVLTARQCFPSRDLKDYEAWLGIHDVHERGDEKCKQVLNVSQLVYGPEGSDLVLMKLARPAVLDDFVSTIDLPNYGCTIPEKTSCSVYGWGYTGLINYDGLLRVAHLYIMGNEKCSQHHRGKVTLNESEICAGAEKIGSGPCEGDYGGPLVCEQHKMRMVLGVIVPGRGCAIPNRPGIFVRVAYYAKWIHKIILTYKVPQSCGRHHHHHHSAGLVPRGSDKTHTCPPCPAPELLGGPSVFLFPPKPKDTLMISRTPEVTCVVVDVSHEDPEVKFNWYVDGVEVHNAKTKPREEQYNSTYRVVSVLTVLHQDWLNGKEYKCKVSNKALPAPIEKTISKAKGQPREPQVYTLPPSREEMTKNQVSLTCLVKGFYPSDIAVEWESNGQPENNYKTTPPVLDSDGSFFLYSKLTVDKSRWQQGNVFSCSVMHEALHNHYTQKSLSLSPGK
Sequence of hHGF-Fc C561R (recombinant hHGF protein containing a cysteine to arginine substitution at position 561) (human) (chain, as listed by the source C561R C561R limits assumed): as the sequence (chain, as listed by the source G555E G555E limits assumed) above, with E501G, C507R counted along it

B1: HE2B8-1 (LR2B8HC + IgG1 constant region G1m(3) allotype allele 1, plus LR2B8LC + Kappa constant region Km(3) allotype allele 1) (antibody, V domains shown)
VH: QVQLVQPGAEVVKPGTSVKLSCKASGYTFTTYWMHWVNQAPGQGLEWIGEINPTNGHTNYNEKFKGKATLTVDKSTSTAYMELSSLRSEDTAVYYCARNYVGSIFDYWGQGTLLTVSS
VL: DIVMTQSPDSMAMSVGERVTLNCKASENVVSYVSWYQQKPGQSPKLLIYGASNRNTGVPDRFSGSGSATDFTLTISSVQAEDVADYHCGQSYNYPYTFGQGTKLEIKR
notes: Human Engineered 2B8 variant, human IgG1 kappa, made in HEK293E cells
With B1, in assay [1], the “IC50, neutralization of HGF stimulated BrdU incorporation in 4 MBr-5 cells” value was determined as 0.47 nM. Also, in [2], the “EC50, inhibition of HGF-stimulated c-Met phosphorylation in PC-3 cells, Average of Two Trials” value is 0.8 nM. Also, in [3], the Kd is 0.0071 nM, the dissociation rate constant (koff) was 1.4e-05 s⁻¹ and the on-rate constant (kon) was found to be 2.2e+06 M⁻¹ s⁻¹. Also, the binding result in assay [4] was “no binding”. Further, in assay [5], the binding result is “binds”. Besides, the binding result in [6] is given as “binds”. Besides, in assay [7], the IC50 was 6 nM.

B2: anti-hHGF monoclonal antibody 1F3 (antibody, mouse IgG1, kappa, V domains shown)
VH: EVQLVESGGGLVQSGGSLKLSCAASGFTFSNYFMSWVRQTPEKRLEWVAYISSGGGSTYYPDSVKGRFTISRDNAKNTLYLQMSSLKSEDTAMYYCVRQGDGYYGDYAMDYWGQGTSVTVSS
VL: DIQMTQSPASLSVSVGETVTITCRASENIYSNLAWYQQKQGKSPQLLVYDATHLPDGVPSRFSGSGSGTQFSLKINSLQSEDFGSYYCQHFWGTPYTFGGGTRLEIKR
notes: Murine IgG1 kappa from hybridoma
For the molecule B2, the “IC50, neutralization of HGF stimulated BrdU incorporation in 4 MBr-5 cells” value in [8] amounted to 1.94 nM. The “EC50, inhibition of HGF-stimulated c-Met phosphorylation in PC-3 cells, Average of Two Trials” value in assay [9] was determined as 1.19 nM. The binding result in assay [10], in assay [11] and in [12] was “binds” throughout. In [13], the dissociation constant Kd came to 0.0181 nM. In addition, the koff in assay [13] was determined as 2.6e-05 s⁻¹. Moreover, in assay [13], the kon is 1.5e+06 M⁻¹ s⁻¹. In addition, in [14], the IC50 was determined as 6.57 nM.
